As a reminder, the Kd is a measure of binding affinity in units of concentration.

Conditions in all cases: both partners purified
Test [1] addresses T1, calmodulin (full-length mammalian, CALM2) (R. norvegicus, UniProt P0DP30 1-149).
T1 construct: Full-length mammalian calmodulin (R. norvegicus CALM2; 100% amino acid identity with H. sapiens CaM), 148 residues; apo CaM and (Ca2+)4-CaM are the same protein without and with 1 mM CaCl2; the two conditions are two assays; also called CaM; WT CaM; source: E. coli BL21-CodonPlus RIL, purified (two Phenyl FF columns)
Kind of test: ITC; CaM species in the syringe, NaV CTerm in the cell; Ca2+-saturating: 20 mM MOPS, 150 mM NaCl, 1 mM MgCl2, 50 µM EGTA with 1 mM CaCl2; VP-ITC; fitted to a single binding site per monomer, error of the fit; one replicate. A general note: ITC needs no label: the signal is the heat of the interaction.

Test [2] has as its target T1, calmodulin (full-length mammalian, …). Kind of test: ITC; CaM species in the syringe, NaV CTerm in the cell; Ca2+-free: 20 mM MOPS, 150 mM NaCl, 1 mM MgCl2, 50 µM EGTA; VP-ITC; fitted to a single binding site per monomer, error of the fit; one replicate.
Test [3] has as its target T2, calmodulin (full-length mammalian calmodulin, R. norvegicus CALM2) (R. norvegicus, UniProt P0DP30 1-149).
T2 construct: full-length mammalian calmodulin, R. norvegicus CALM2, 100% amino acid identity with H. sapiens CaM, in pET24b; Ca2+-free (apo, 50 µM EGTA) and Ca2+-saturated ((Ca2+)4, 1 mM CaCl2) states are the same molecule; the assays tell them apart; also called CaM; CaM WT; source: E. coli BL21-CodonPlus RIL; for ITC expressed alone and purified (two Phenyl FF columns); for crystals co-expressed and …
Kind of test: ITC; Ca2+-saturating: CTerm (2–25 µM) in the sample cell, CaM, CaM12 or CaM34 (30–1000 µM) as titrant; 20 mM MOPS, 150 mM NaCl, 1 mM MgCl2, 50 µM EGTA with 1 mM CaCl2; VP-ITC, single binding site fit, one replicate.

For test [4], the target named is T2, calmodulin (full-length mammalian …). Kind of test: ITC; Ca2+-free: CTerm (2–25 µM) in the sample cell, CaM (30–1000 µM) as titrant; 20 mM MOPS, 150 mM NaCl, 1 mM MgCl2, 50 µM EGTA; VP-ITC, single binding site fit, one replicate.

B1: NaV1.4 CTerm Long (residues 1599-1764) (domain or fragment)
chain: ENFNVATEESSEPLGEDDFEMFYETWEKFDPDATQFIAYSRLSDFVDTLQEPLRIAKPNKIKLITLDLPMVPGDKIHCLDILFALTKEVLGDSGEMDALKQTMEEKFMAANPSKVSYEPITTTLKRKHEEVCAIKIQRAYRRHLLQRSMKQASYMYRHSHDGSGDD
notes: The text layer of the ITC plots in D1 (p5, p9); not shown: GST, N-terminal, kept
B1: the values for the Ka in test [1] and in test [2] were 3.63e+06 M⁻¹ and 5.85e+07 M⁻¹, respectively.

B2: NaV1.4 CTerm Long (residues 1599–1764), freed of CaM for ITC (domain or fragment)
chain: B1 chain
notes: H. sapiens NaV1.4 (SCN4A) C-terminal domain, a.a; the protein may have carried GST in the titrations; source: E. coli BL21-CodonPlus RIL, co-expressed with CaM, purified (Glutathione Sepharose; CaM removed by a TFP and Ca2+ wash; eluted with glutathione; 70% pure)
Turning to B2, the dissociation constant (Kd) is 275 nM in test [3] and 17 nM in test [4].

B3: NaV1.4 CTerm Short (residues 1599–1754), freed of CaM for ITC (domain or fragment)
chain: ENFNVATEESSEPLGEDDFEMFYETWEKFDPDATQFIAYSRLSDFVDTLQEPLRIAKPNKIKLITLDLPMVPGDKIHCLDILFALTKEVLGDSGEMDALKQTMEEKFMAANPSKVSYEPITTTLKRKHEEVCAIKIQRAYRRHLLQRSMKQASYMYLTRAAAS
notes: additional 7 residues at the C-terminus of the construct; source: E. coli BL21-CodonPlus RIL, co-expressed with CaM, purified (Glutathione Sepharose; CaM removed by a TFP and Ca2+ wash; eluted with glutathione; 70% pure)
Turning to B3, the equilibrium dissociation constant (Kd) in test [3] came out at 305 nM; in test [4], 114 nM.

(Values after paper PMC6447637, “Ca^2+-dependent regulation of sodium channels NaV1.4 and NaV1.5 is controlled by the post-IQ motif” (Nature Communications, 2019).)
